Results reported in patent publication US12397037B2, “Methods and compositions for immunomodulation” (CHILDREN'S MEDICAL CENTER CORPORATION, priority 2014, dated 2025).

Key:
[1] = system: U87MG cells; experiment: Western blot of PI-3K/Akt-mTOR and MAPK signaling in U87MG cells; assay type: cell-based, human
Description: U87MG which express NRP-2 were used for this assay.
To determine the effect of SEMA3F on intracellular signaling responses, levels of phosphokinases in the NRP2-expressing human glioblastoma cell line U87MG were profiled.
(§1) Western blotting: Proteins within each sample were separated by SDS-PAGE and transferred to nitrocellulose membranes. The membranes were blocked with 4% skimmed milk in TBS-T (0.1% Tween 20 in tris-buffered saline [TBS]) for 30 minutes, followed by incubation with the primary antibody. After washing with TBS-T, membranes were incubated with the appropriate horseradish peroxidase-conjugated secondary antibody, and immunoreactivity was detected by using ECL detection reagents.

[2] = system: Jurkat T cells; experiment: Western blot of pAkt (S473) in NRP-2-expressing Jurkat T cells; assay type: cell-based, human; conditions: 30 min
Description: FIG. 20 depicts the results of Western blots of NRP-2-expressing Jurkat T cells treated with increasing concentrations of SEMA3F for 30 min. Expression of pAkt (S473) was evaluated by Western blot.
In addition, as illustrated in FIG. 20 NRP-2-expressing Jurkat T cells were treated with increasing concentrations of SEMA3F for 30 min. and expression of pAkt (S473) was evaluated by Western blot. Expression is reduced following treatment with high concentrations of SEMA3F (>600 ng/ml)
as §1

[3] = system: HUVEC; experiment: Western blot of pAkt in HUVEC after PTEN siRNA knockdown; assay type: cell-based, human; conditions: PTEN siRNA 20 nM, SEMA3F 1800 ng/ml
Description: FIG. 36A depicts a western blot. HUVEC were treated with SEMA3F (1800 ng/ml) for 30 minutes and were subjected to immunoprecipitation and Western blot analyses with anti-NRP2 and -PTEN as illustrated. FIG. 36B depicts a western blot. HUVEC were transfected with control-, or Plexin A1-specific siRNAs (20 nM), prior to SEMA3F treatment (1800 ng/ml); lysates were subjected to immunoprecipitation and Western blot analyses with anti-NRP2 and anti-PTEN as illustrated. FIG. 36C depicts a western blot. HUVEC were transfected with control-, or PTEN-specific siRNAs (20 nM), prior to SEMA3F treatment (1800 ng/ml); lysates were analyzed by Western blot. FIG. 36D depicts a western blot. U87MG cells were transfected with control or GIPC1-specific siRNA (20 nM). After 48 hours, cells were treated with SEMA3F (200, 600, 1800 ng/ml, from left to right) for 30 minutes, and were analyzed by Western blot. FIG. 36E depicts a western blot. U87MG cells were treated with U0126 (10 μM) for 30 minutes prior to combination with 30 minutes and 60 minutes of SEMA3F (640 ng/ml). Akt and MAPK signaling was analyzed by Western blot. All data presented are representative of 3 independent experiments.
It is thus likely that SEMA3F inactivates mTORC2 via upstream inhibition of PI-3K. […]

[4] = system: PI-3K; experiment: PI3-Kinase Activity ELISA; assay type: cell-based, human
Description: FIG. 28A depicts U87MG cells untreated (control) or following treatment with SEMA3F (640 ng/ml) for 30 minutes. Cell lysates were evaluated by phosphoprotein kinase antibody array. FIG. 28B depicts results of the array validated by Western blot analysis. FIG. 28C depicts U87MG cells treated with SEMA3F (640 ng/ml) as a time course up to 60 minutes and were analyzed by Western blot. FIGS. 28B-28C are representative of 3 independent experiments. FIG. 28D depicts U87MG, Jurkat and HUVEC cells treated with SEMA3F (200, 600, 1800 ng/ml, bars from left to right) for 15 minutes (grey bars) or 30 minutes (black bars); as a positive control, HUVEC were treated with VEGF-A (25 ng/ml) for 15 and 30 minutes. In addition, HUVEC were pre-treated with SEMA3F (1800 ng/ml) or PBS as a control for 30 minutes and subsequently VEGF-A (25 ng/ml) was added to the culture for 15 and 30 minutes. PI-3K activity was analyzed by ELISA according to the manufacturer's instructions. Data represent the mean±SD of 3 experiments.
SEMA3F inhibits Akt, mTOR, and S6K phosphorylation. To determine the effect of SEMA3F on intracellular signaling responses, levels of phosphokinases in the NRP2-expressing human glioblastoma cell line U87MG were profiled.
The VEGF-A (DVE00) ELISA kit was obtained from R&D Systems (Minneapolis, MN). […]

[5] = system: U87MG cells; conditions: U87MG cells within 24 hours; reference 6; cited from earlier work
[6] = U87MG cells, 640 ng/ml time course

B1: SEMA3F: Human recombinant full-length His-Myc-tagged SEMA3F, secreted by transfected 293T cells and purified; class 3 semaphorin, NRP-2 ligand (protein, listed as Homo sapiens)
chain: MLVAGLLLWASLLTGAWPSFPTQDHLPATPRVRLSFKELKATGTAHFFNFLLNTTDYRILLKDEDHDRMYVGSKDYVLSLDLHDINREPLIIHWAASPQRIEECVLSGKDVNGECGNFVRLIQPWNRTHLYVCGTGAYNPMCTYVNRGRRAQATPWTQTQAVRGRGSRATDGALRPMPTAPRQDYIFYLEPERLESGKGKCPYDPKLDTASALINEELYAGVYIDFMGTDAAIFRTLGKQTAMRTDQYNSRWLNDPSFIHAELIPDSAERNDDKLYFFFRERSAEAPQSPAVYARIGRICLNDDGGHCCLVNKWSTFLKARLVCSVPGEDGIETHFDELQDVFVQQTQDVRNPVIYAVFTSSGSVFRGSAVCVYSMADIRMVFNGPFAHKEGPNYQWMPFSGKMPYPRPGTCPGGTFTPSMKSTKDYPDEVINFMRSHPLMYQAVYPLQRRPLVVRTGAPYRLTTIAVDQVDAADGRYEVLFLGTDRGTVQKVIVLPKDDQELEELMLEEVEVFKDPAPVKTMTISSKRQQLYVASAVGVTHLSLHRCQAYGAACADCCLARDPYCAWDGQACSRYTASSKRRSRRQDVRHGNPIRQCRGFNSNANKNAVESVQYGVAGSAAFLECQPRSPQATVKWLFQRDPGDRRREIRAEDRFLRTEQGLLLRALQLSDRGLYSCTATENNFKHVVTRVQLHVLGRDAVHAALFPPLSMSAPPPPGAGPPTPPYQELAQLLAQPEVGLIHQYCQGYWRHVPPSPREAPGAPRSPEPQDQKKPRNRRHHPPDT
modifications: His-Myc tag
notes: Human recombinant full-length His-Myc-tagged SEMA3F, secreted by transfected 293T cells and purified; class 3 semaphorin, NRP-2 ligand
- pSGK1 (S422) and pPKC (S657) ([1]; U87MG cells): inhibited
- pS6K and pS6 in 2DAkt transfected cells ([1]; U87MG cells transfected with constitutively active Akt (2DAkt), SEMA3F 640 ng/ml): no change in expression
- persistence of inhibitory effect [1, 6]: greater than 60 minutes
- time within which pAkt (T308 and S473), pmTOR, pS6K and pS6 were inhibited [1, 6]: 10-20 minutes
- pAkt (S473) in 2DAkt transfectants ([1]; U87MG cells, SEMA3F 640 ng/ml): reduced the level of pAkt (S473)
- pAkt (T308 and S473) and pS6K ([1]; U87MG cells, SEMA3F 640 ng/ml for 60 minutes vs untreated): reduced levels of pAkt (T308 and S473) and pS6K
- inhibition of expression of pAkt (S473) (densitometry) ([1]; U87MG cells, SEMA3F ~640 ng/mL, after 10 min): > 80%
- pAkt and pS6K after rapamycin pretreatment ([1]; U87MG cells, rapamycin 30 minutes, then SEMA3F and rapamycin for 60 minutes): reduced levels of both pAkt and pS6K
- pAkt, pS6K and pS6 in NRP2 and Plexin A1-siRNA transfected cells ([1]; U87MG cells, siRNA 20 nM, SEMA3F 640 ng/ml): failed to inhibit
- concentration at which peak effects were observed ([1]; U87MG cells, signaling): ~600 ng/mL
- expression of pERK1/2 ([1]; U87MG cells, ~640 ng/mL): markedly reduced
- time of peak effect on pERK1/2 ([1]; U87MG cells, ~640 ng/mL): ≤ 30 mins
- pAkt (S473), pAkt (T308), pmTOR and pS6K ([1]; U87MG cells, ~640 ng/mL, by 30 min): most significant reduction
- pAkt and pS6K signaling at the lowest concentration ([1]; U87MG, SEMA3F 200 ng/ml, 30 minutes): inhibits pAkt and pS6K signaling
- concentration of SEMA3F at which expression of pAkt (S473) is reduced [2]: > 600 ng/ml
- pAkt expression following siRNA knockdown of PTEN [3]: failed to inhibit pAkt expression
- PI-3K activity ([4]; U87MG, Jurkat and HUVEC, SEMA3F 200, 600, 1800 ng/ml, 15 or 30 minutes): inhibited PI-3K activity
- VEGF-induced PI-3K activation ([4]; endothelial cells (HUVEC) pre-treated with SEMA3F 1800 ng/ml for 30 minutes, then VEGF-A 25 ng/ml): inhibited subsequent VEGF-induced PI-3K activation
- apoptosis [5]: does not induce apoptosis
